{"source": "patent US20100209447A1", "about": "(TUFTS UNIVERSITY, published 2010)", "target": "the molecule itself", "assay": "Coomassie-stained gel; self-association inferred from a band of about 17 kD against a 3.5 kD monomer"}
{"protein": "CGGGARKKAAKAARKKAAKAARKKAAKAARKKAAKA (Synthetic peptide with a 3.5 kD monomer; also called cysteine containing POD; cysteine-POD)", "note": "[C-POD, CGGG(ARKKAAKA)4]", "values": [{"measurement": "binding result", "result": "binds"}]}
